In the supplement of paper PMC6757056:
± gives the standard deviation of the averaged measurements.

B1: library; a variant is named by its letters at N, in order (parent)
chain: GCUGUCACCGGUGUAUUACCCUAGUGGUCGACCGGUCUGAUGAGUCUNNNNNNAGACGAAACAGC

Legend:
[1] = variants of: B1; experiment: FACS-Seq fitted mean relative fluorescence mCherry/BFP without ligand (log10 relative fluorescence); ligand: hypoxanthine (xanthine aptamer); higher = higher reporter protein expression; conditions: HEK293T, ligand present: no
Method in brief: (§1)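 Fluorescence figures are normalized fitted normal means of sequenced bin counts. Enriched, lentivirally transduced HEK293T libraries with a ribozyme-switch mCherry reporter and EF1α-BFP were held 48 h with or without ligand, then sorted into 6 mCherry/BFP bins. PCR-amplified, barcoded genomic DNA from each bin was sequenced on MiSeq. Means of log10(mCherry/BFP) were scaled to five spiked-in control ribozymes.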

[2] = variants of: B1; experiment: normalized RNA/DNA level with ligand (relative to sTRSVctl = 100) (log10 (% of sTRSVctl)); ligand: hypoxanthine (xanthine aptamer); higher = less ribozyme self-cleavage, higher mRNA level; conditions: ligand concentration (+) RNA-Seq: 5 mM, HEK293T, reporter: mCherry (pCS4076), ligand present: yes
Description: (§2)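 Hammerhead (sTRSV) ribozyme switch libraries with a ligand aptamer grafted on stem I and a randomized N4-6 loop II, cloned into the 3' UTR of mCherry and transiently transfected into HEK293T cells; RNA-Seq 72 h post transfection with ligand added 1 h before transfection; RNA read count / plasmid DNA read count normalized to the non-cleaving sTRSVctl (x100), log10; sequences with >100 DNA reads. FACS-Seq: lentiviral library sorted into 6 bins after 48 h ligand, log-normal fit mean of mCherry/BFP scaled to controls. Printed sequences are partial switch sequences.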

[3] = variants of: B1; experiment: normalized RNA/DNA level without ligand (relative to sTRSVctl = 100) (log10 (% of sTRSVctl)); ligand: hypoxanthine (xanthine aptamer); higher = less ribozyme self-cleavage, higher mRNA level; conditions: HEK293T, reporter: mCherry (pCS4076), ligand present: no
Description: as §2

[4] = variants of: B1; experiment: FACS-Seq fitted mean relative fluorescence mCherry/BFP with ligand (log10 relative fluorescence); ligand: hypoxanthine (xanthine aptamer); ligand concentration (+) FACS-Seq: 5 mM; higher = higher reporter protein expression; conditions: HEK293T, ligand present: yes
Method in brief: as §1

Variant | FACS-Seq fitted mean (log10) [1] | normalized RNA/DNA level with ligand (log10) [2] | normalized RNA/DNA level without ligand (log10) [3] | FACS-Seq fitted mean (log10) [4]
AAGACA | 0.332 ± 0.067 | 1.93 ± 0.067 | 1.675 ± 0.012 | 0.559 ± 0.0087
AAGACG | -0.0743 ± 0.0055 | 1.67 ± 0.077 | 1.17 ± 0.027 | 0.587 ± 0.028
AAGACC | 0.483 ± 0.015 | 1.94 ± 0.029 | 1.9 ± 0.027 | 0.305 ± 0.21
AAGAGU | 0.323 ± 0.065 | 1.81 ± 0.025 | 1.4 ± 0.047 | 0.664 ± 0.051
AAGAGG | -0.185 ± 0.01 | 1.43 ± 0.017 | 1.065 ± 0.0061 | 0.478 ± 0.048
AAGAGA | 0.1774 ± 0.00084 | 1.8 ± 0.047 | 1.25 ± 0.055 | 0.598 ± 0.033
AAGAAA | 0.272 ± 0.028 | 1.91 ± 0.029 | 1.605 ± 0.01 | 0.598 ± 0.015
AAGAAU | 0.521 ± 0.035 | 1.906 ± 0.0038 | 1.65 ± 0.018 | 0.5797 ± 0.0012
AAGAAG | -0.35 ± 0.015 | 1.545 ± 0.013 | 1.04 ± 0.028 | 0.459 ± 0.029
GACGUU | 0.455 ± 0.066 | 1.9 ± 0.044 | 1.853 ± 0.0023 | 0.575 ± 0.066
AAGAUC | 0.614 ± 0.031 | 1.973 ± 0.0076 | 1.92 ± 0.043 | 0.556 ± 0.033
AAGAUA | 0.32 ± 0.064 | 1.89 ± 0.031 | 1.63 ± 0.022 | 0.339 ± 0.1
AACUUA | 0.394 ± 0.02 | 1.9 ± 0.021 | 1.857 ± 0.013 | 0.581 ± 0.02
AACUUU | 0.233 ± 0.078 | 1.92 ± 0.038 | 1.9 ± 0.058 | 0.348 ± 0.087
AACUUG | 0.597 ± 0.037 | 1.87 ± 0.027 | 1.54 ± 0.03 | 0.726 ± 0.1
CACGGU | 0.663 ± 0.025 | 1.869 ± 0.0027 | 1.758 ± 0.0045 | 0.669 ± 0.15
GAGAUA | 0.345 ± 0.013 | 1.869 ± 0.015 | 1.65 ± 0.0036 | 0.362 ± 0.087
GAGAUC | 0.247 ± 0.015 | 1.94 ± 0.021 | 1.83 ± 0.053 | 0.211 ± 0.004
GACUCG | 0.331 ± 0.066 | 1.86 ± 0.051 | 1.63 ± 0.083 | 0.567 ± 0.081
UACUGU | 0.399 ± 0.032 | 1.95 ± 0.066 | 1.67 ± 0.011 | 0.638 ± 0.036
GAGAAC | 0.417 ± 0.072 | 1.912 ± 0.0063 | 1.63 ± 0.038 | 0.735 ± 0.033
GAGAAA | 0.546 ± 0.035 | 1.88 ± 0.021 | 1.597 ± 0.015 | 0.651 ± 0.048
GAGAAG | -0.406 ± 0.0075 | 1.55 ± 0.017 | 1.05 ± 0.024 | 0.342 ± 0.037
GAGAAU | 0.4579 ± 0.0037 | 1.91 ± 0.021 | 1.67 ± 0.023 | 0.611 ± 0.05

Variant | FACS-Seq fitted mean (log10) [1] | normalized RNA/DNA level with ligand (log10) [2] | normalized RNA/DNA level without ligand (log10) [3] | FACS-Seq fitted mean (log10) [4]
CACGUA | 0.4515 ± 0.0024 | 1.9 ± 0.016 | 1.784 ± 0.0067 | 0.594 ± 0.022
UACUUU | 0.0654 ± 0.07 | 1.97 ± 0.038 | 1.921 ± 0.0072 | 0.288 ± 0.041
UAGAGG | 0.0918 ± 0.042 | 1.75 ± 0.038 | 1.21 ± 0.03 | 0.552 ± 0.011
UAGAGU | 0.11 ± 0.061 | 1.74 ± 0.09 | 1.21 ± 0.04 | 0.536 ± 0.099
UAGAGA | -0.0593 ± 0.041 | 1.9 ± 0.051 | 1.39 ± 0.036 | 0.431 ± 0.029
AACUAU | 0.469 ± 0.04 | 1.9 ± 0.041 | 1.787 ± 0.012 | 0.51 ± 0.053
AACUAA | 0.536 ± 0.12 | 1.937 ± 0.014 | 1.81 ± 0.035 | 0.663 ± 0.043
AACUAG | 0.232 ± 0.032 | 1.819 ± 0.011 | 1.473 ± 0.0054 | 0.521 ± 0.045
AACUAC | 0.621 ± 0.011 | 1.922 ± 0.014 | 1.841 ± 0.0075 | 0.653 ± 0.028
CACUGG | 0.504 ± 0.03 | 1.9 ± 0.019 | 1.43 ± 0.16 | 0.709 ± 0.016
UACUCA | 0.0121 ± 0.031 | 1.95 ± 0.029 | 1.907 ± 0.0097 | 0.0228 ± 0.0046
AACUGU | 0.343 ± 0.028 | 1.89 ± 0.027 | 1.72 ± 0.014 | 0.538 ± 0.014
AACUGA | -0.0809 ± 0.032 | 1.94 ± 0.035 | 1.716 ± 0.012 | -0.204 ± 0.016
AACUGC | 0.74 ± 0.033 | 1.91 ± 0.053 | 1.87 ± 0.025 | 0.697 ± 0.048
AACUGG | 0.285 ± 0.031 | 1.7871 ± 0.0011 | 1.42 ± 0.039 | 0.67312 ± 0.00058
AACGGG | 0.0434 ± 0.0087 | 1.83 ± 0.074 | 1.38 ± 0.036 | 0.516 ± 0.021
AACGGU | 0.118 ± 0.036 | 1.88 ± 0.034 | 1.577 ± 0.01 | 0.3457 ± 0.0031
UACUAA | 0.00308 ± 0.026 | 1.91 ± 0.023 | 1.8 ± 0.025 | 0.206 ± 0.073
UACUAG | 0.177 ± 0.053 | 1.9142 ± 0.0014 | 1.65 ± 0.033 | 0.506 ± 0.038
CACUUC | -0.745 ± 0.014 | 1.884 ± 0.015 | 1.93 ± 0.066 | -0.484 ± 0.033
CACUUU | 0.525 ± 0.016 | 1.89 ± 0.036 | 1.847 ± 0.0042 | 0.491 ± 0.011
GACUGA | 0.742 ± 0.053 | 1.94 ± 0.072 | 1.763 ± 0.011 | 0.639 ± 0.17
GACUGG | 0.157 ± 0.015 | 1.758 ± 0.0058 | 1.42 ± 0.045 | 0.6446 ± 0.0029
GAGAGG | 0.00193 ± 0.027 | 1.45 ± 0.017 | 1.01 ± 0.1 | 0.644 ± 0.032

Variant | FACS-Seq fitted mean (log10) [1] | normalized RNA/DNA level with ligand (log10) [2] | normalized RNA/DNA level without ligand (log10) [3] | FACS-Seq fitted mean (log10) [4]
GAGAGC | 0.164 ± 0.036 | 1.8 ± 0.033 | 1.27 ± 0.072 | 0.494 ± 0.031
GAGAGA | 0.257 ± 0.028 | 1.81 ± 0.02 | 1.34 ± 0.042 | 0.585 ± 0.043
GACUUG | 0.475 ± 0.072 | 1.84 ± 0.054 | 1.5 ± 0.034 | 0.228 ± 0.36
AACUCG | 0.382 ± 0.056 | 1.92 ± 0.033 | 1.582 ± 0.0054 | 0.644 ± 0.022
AACGUG | 0.285 ± 0.021 | 1.817 ± 0.013 | 1.3 ± 0.041 | 0.737 ± 0.012
AACGUC | 0.221 ± 0.029 | 2.01 ± 0.052 | 1.949 ± 0.0078 | 0.255 ± 0.0059
AACGUA | 0.494 ± 0.032 | 1.86 ± 0.058 | 1.702 ± 0.0047 | 0.516 ± 0.1
CAGAGG | 0.273 ± 0.0028 | 1.813 ± 0.0092 | 1.21 ± 0.06 | 0.702 ± 0.048
CAGAGA | 0.37782 ± 0.00012 | 1.892 ± 0.0089 | 1.659 ± 0.0052 | 0.696 ± 0.03
UACGGG | 0.0501 ± 0.0033 | 1.928 ± 0.0024 | 1.509 ± 0.013 | 0.553 ± 0.062
UACGGC | 0.35 ± 0.0036 | 1.95 ± 0.0066 | 1.795 ± 0.0028 | 0.542 ± 0.1
CAGACA | 0.574 ± 0.043 | 1.96 ± 0.032 | 1.75 ± 0.045 | 0.74 ± 0.064
GACUAU | 0.185 ± 0.051 | 1.92 ± 0.077 | 1.829 ± 0.016 | 0.377 ± 0.004
GACUAA | 0.354 ± 0.073 | 1.89 ± 0.027 | 1.796 ± 0.0046 | 0.515 ± 0.01
GAGACA | 0.3113 ± 0.00099 | 1.905 ± 0.0057 | 1.68 ± 0.029 | 0.548 ± 0.014
GAGACG | 0.287 ± 0.0096 | 1.749 ± 0.015 | 1.25 ± 0.055 | 0.807 ± 0.067
GAGACU | -0.451 ± 0.03 | 1.96 ± 0.047 | 1.83 ± 0.031 | -0.205 ± 0.035
CAGAAC | 0.442 ± 0.066 | 1.884 ± 0.0072 | 1.73 ± 0.039 | 0.407 ± 0.016
CAGAAA | 0.22 ± 0.05 | 1.874 ± 0.00091 | 1.58 ± 0.062 | 0.32 ± 0.027
UAGAAA | 0.355 ± 0.024 | 1.88 ± 0.052 | 1.702 ± 0.013 | 0.469 ± 0.053
UAGAAG | 0.421 ± 0.0051 | 1.858 ± 0.0066 | 1.47 ± 0.022 | 0.577 ± 0.057
UAGAAC | 0.437 ± 0.028 | 1.93 ± 0.031 | 1.809 ± 0.014 | 0.578 ± 0.076
UAGAAU | 0.3304 ± 0.003 | 1.9 ± 0.023 | 1.72 ± 0.03 | 0.6203 ± 0.0037
CACUAA | 0.376 ± 0.014 | 1.8618 ± 0.00057 | 1.74 ± 0.025 | 0.456 ± 0.0093
